According to US5861377:

How the values were obtained:
[1] = target: trypsin (inhibition assay used during purification)
[2] = target: chymotrypsin (inhibition assay used during purification)

specific activity (SA) of trypsin inhibition, Mono S pool [1]: 2.7 IU/mg
specific activity (SA) of chymotrypsin inhibition, Mono S pool [2]: 0.15 IU/mg
Substance: hirustasin (Hirudo antistasin)
